The labels stand for the following.
B2: P546_AMBCA (other)
chain: ENTQQEEEDYDYGTDTCPFPVLANKTNKAKFVGCHQKCNGGDQKLTDGTACYVVERKVWDRMTPMLWYSCPLGECKNGVCEDLRKKEECRKGNGEEK
notes: Tick evasin; also called Evasin
B6: CCL5_HUMAN (ligand)
chain: SPYSSDTTPCCFAYIARPLPRAHIKEYFYTSGKCSNPAVVFVTRKNRQVCANPEKKWVREYINSLEMS
notes: Biotinylated (detected with streptavidin-Alexa647) in yeast display; AlexaFluor 647 labelled (Almac) in thermophoresis

In one experiment the target is T1, P1243_AMBAM (Amblyomma americanum, UniProt A0A0C9S461 26-123).
T1 construct: Tick evasin; also called Evasin
T1 sequence: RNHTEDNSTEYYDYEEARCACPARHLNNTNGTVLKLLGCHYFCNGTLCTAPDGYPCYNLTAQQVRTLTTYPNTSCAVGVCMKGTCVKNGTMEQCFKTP
The experiment can be described thus: microscale thermophoresis, AlexaFluor 647 labelled chemokine. (In MST a laser heats a spot of the sample, and binding alters the fluorescence response.)

Another experiment deals with T2, CCL25_HUMAN (human, UniProt O15444 24-150).
T2 construct: Biotinylated (detected with streptavidin-Alexa647) in yeast display; AlexaFluor 647 labelled (Almac) in thermophoresis
T2 sequence: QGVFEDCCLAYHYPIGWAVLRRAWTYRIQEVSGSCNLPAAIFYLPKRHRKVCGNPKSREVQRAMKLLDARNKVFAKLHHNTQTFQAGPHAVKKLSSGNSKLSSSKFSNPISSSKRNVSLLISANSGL
The experiment is described as above.

In the next experiment the target is T3, P1182_AMBMA (Amblyomma maculatum, UniProt G3MJ83 27-115).
T3 construct: Tick evasin; also called Evasin
T3 sequence: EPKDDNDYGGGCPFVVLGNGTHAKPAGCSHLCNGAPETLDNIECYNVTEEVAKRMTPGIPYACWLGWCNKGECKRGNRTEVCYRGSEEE
Nature of the experiment: yeast surface display library FACS screen, labelled chemokine (col C: isolated in).

The target of another experiment is T4, P672_RHIPU (Rhipicephalus pulchellus, UniProt L7MC74 22-125).
T4 construct: Tick evasin; also called Evasin
T4 sequence: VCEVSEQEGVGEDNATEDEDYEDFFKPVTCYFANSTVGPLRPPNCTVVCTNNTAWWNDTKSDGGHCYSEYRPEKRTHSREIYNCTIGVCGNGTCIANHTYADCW
The experiment is described as above.

The experiment “P546_AMBCA” concerns the target B2. The experiment can be described thus: microscale thermophoresis, AlexaFluor 647 labelled chemokine.
The next experiment deals with T5, CCL19_HUMAN (human, UniProt Q99731 22-98).
T5 construct: Biotinylated (detected with streptavidin-Alexa647) in yeast display; AlexaFluor 647 labelled (Almac) in thermophoresis
T5 sequence: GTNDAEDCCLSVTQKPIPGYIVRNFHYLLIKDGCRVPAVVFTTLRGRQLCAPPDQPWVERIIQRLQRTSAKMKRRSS
The experiment can be described thus: yeast surface display library FACS screen, labelled chemokine (col C: isolated in).

In another experiment the target is T6, CXCL10_HUMAN (human, UniProt P02778 22-98).
T6 construct: Biotinylated (detected with streptavidin-Alexa647) in yeast display; AlexaFluor 647 labelled (Almac) in thermophoresis
T6 sequence: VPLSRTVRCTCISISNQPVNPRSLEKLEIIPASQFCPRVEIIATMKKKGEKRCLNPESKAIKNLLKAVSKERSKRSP
The description is as above.

A further experiment deals with T7, CCL3_HUMAN (human, UniProt P10147 24-92).
T7 construct: Biotinylated (detected with streptavidin-Alexa647) in yeast display; AlexaFluor 647 labelled (Almac) in thermophoresis
T7 sequence: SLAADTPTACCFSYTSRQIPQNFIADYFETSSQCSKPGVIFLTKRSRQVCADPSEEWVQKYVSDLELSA
The experiment is described as above.

Another experiment has as its target T8, CCL11_HUMAN (human, UniProt P51671 24-97).
T8 construct: Biotinylated (detected with streptavidin-Alexa647) in yeast display; AlexaFluor 647 labelled (Almac) in thermophoresis
Described as above.

The next experiment deals with T9, CCL1_HUMAN (human, UniProt P22362 24-96).
T9 construct: Biotinylated (detected with streptavidin-Alexa647) in yeast display; AlexaFluor 647 labelled (Almac) in thermophoresis
T9 sequence: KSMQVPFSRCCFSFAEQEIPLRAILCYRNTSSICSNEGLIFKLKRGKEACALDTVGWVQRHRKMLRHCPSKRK
The description is as above.

The target in the next experiment is T10, CXCL8_HUMAN (human, UniProt P10145 28-99).
T10 construct: Biotinylated (detected with streptavidin-Alexa647) in yeast display; AlexaFluor 647 labelled (Almac) in thermophoresis
T10 sequence: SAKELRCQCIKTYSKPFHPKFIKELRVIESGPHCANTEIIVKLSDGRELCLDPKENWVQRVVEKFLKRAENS
The experiment is described as above.

Another experiment deals with T11, CCL18_HUMAN (human, UniProt P55774 21-89).
T11 construct: Biotinylated (detected with streptavidin-Alexa647) in yeast display; AlexaFluor 647 labelled (Almac) in thermophoresis
T11 sequence: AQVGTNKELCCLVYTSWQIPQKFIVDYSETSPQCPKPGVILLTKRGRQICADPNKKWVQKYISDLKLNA
The experiment can be described thus: yeast surface display FACS re-test, >3 fold MFI over control (col D).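 Further: yeast displaying putative tick Evasins stained with biotinylated human chemokine plus streptavidin-Alexa647, flow cytometry, positive when MFI exceeds 3-fold the empty-vector or no-chemokine background.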

The experiment “CCL5_HUMAN” concerns the target B6. Nature of the experiment: microscale thermophoresis, AlexaFluor 647 labelled chemokine.
In another experiment the target is T12, P985_AMBPA (Amblyomma parvum, UniProt A0A023FT45 25-132).
T12 construct: Tick evasin; also called Evasin
T12 sequence: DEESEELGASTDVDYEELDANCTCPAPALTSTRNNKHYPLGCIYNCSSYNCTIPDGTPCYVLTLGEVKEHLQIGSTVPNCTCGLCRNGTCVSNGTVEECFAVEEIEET
The experiment is described as above.

The next experiment has as its target T13, P467_RHIPU (Rhipicephalus pulchellus, UniProt L7M8Z8 22-127).
T13 construct: Tick evasin; also called Evasin
T13 sequence: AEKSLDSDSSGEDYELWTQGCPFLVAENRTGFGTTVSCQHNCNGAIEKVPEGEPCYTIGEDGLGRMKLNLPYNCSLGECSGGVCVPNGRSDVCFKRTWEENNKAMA
The experiment is described as above.

The values below come from US20220175942A1 (OXFORD UNIVERSITY INNOVATION, published 2022).

The Kd is the equilibrium constant for the complex coming apart. A lower Kd goes with a tighter complex.

T8 sequence (P51671 24-97 limits assumed): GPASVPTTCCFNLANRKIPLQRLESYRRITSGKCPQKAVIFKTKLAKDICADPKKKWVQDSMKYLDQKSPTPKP

B1: CCL15_HUMAN (ligand)
chain: QFTNDAETELMMSKLPLENPVVLNSFHFAADCCTSYISQSIPCSLMKSYFETSSECSKPGVIFLTKKGRQVCAKPSGPGVQDCMKKLKPYSI
notes: as for B6
As to B1, the affinity in the experiment with P1243_AMBAM, expressed as Kd, was 4 nM.
The molecule B2 showed a Kd in the experiment with CCL25_HUMAN of 1220 nM.

B3: CCL8_HUMAN (ligand)
chain: QPDSVSIPITCCFNVINRKIPIQRLESYTRITNIQCPKEAVIFKTKRGKEVCADPKERWVRDSMKHLDQIFQNLKP
notes: as for B6
Turning to B3, the binding result with P1182_AMBMA and in the experiment with P672_RHIPU was “binds” throughout. The Kd with P546_AMBCA was determined as 80 nM.

B4: P1224_IXORI (other)
chain: SDLCKMEAESSPFKLPQSSLLDAPDEEGCKYQLLFVEAEGPLVVNCTKDCPNGKIRTVVEGELCIAMVKTSSSGEATGLVGSCKRGSCVKKDDPCRTFTLSEEGDDDEEDEEEEEDEEEDEEEDEEEEEEDEEEED
notes: as for B2
Regarding B4, the binding result with CCL19_HUMAN, with CXCL10_HUMAN and with CCL3_HUMAN was “binds” in each case.

B5: P1215_AMBPA (other)
chain: KTDTKNAAGELPPKVVIPGCEDPATTKAPLPDEPPYYGITIDKDGCQRKVLGSSQRQQRKVQNGRKLDGKKRGRRPVFVDLELTVDCKRKCNGTYSQLPDGENCLVSDGYPYGRWGTIKGGCYQGNCSSGQCHRGEKKVNCYLPKNITNDVPKSLNLAE
notes: as for B2
Consider B5, for which the binding result in the experiment with CCL11_HUMAN, with CCL1_HUMAN, in the experiment with CXCL8_HUMAN and with CCL18_HUMAN was “binds” in each case. Besides, the Kd with CCL5_HUMAN was found to be 73 nM.
Consider B6, for which the Kd with P985_AMBPA and in the experiment with P467_RHIPU was 48 nM each time.
